From US20180244757A1

B1: MAb 2AG8 (antibody, V domains shown)
VH: VKLEESGAELVRSGASLKMSCKASGYTFTSYNLHWVKQTPGQGLEWIGYIFPGNGGTAYNEKFKGKATLTADTSSSTAYMQISSLTSEDSAVYFCARGGPYYALDYWGQGTSVTVSS
VL: DIVMTQSPASLSASVGETVTITCRTSGNIHTYLAWYQHKQGKSPQLLVYYAKTLADGVPSRFSGSGSGTQYSLKINSLQPEDFGSYYCQHFWSNPRTFGGGTKLEIKR
B2: MAb 2BB5 (antibody, V domains shown)
VH: EVQLEESGGGLVQPGGSMKLSCVASGFTFSNYWMNWVRQSPEKGLEWVAEVRLNSNNYATHYAESVKGRFTISRDDSKSSVYLQMSNLRSEDTGIYYCSTDYYGYAMDYWGQGTSVTVSS
VL: DIVMTQTPSIMSASPGEKVTITCSASSNVNYMHWFQQKPGTSPKLWIYSTSNLASGVPARFSGSGSGTSYSLTISRMEAEDAATYYCQQRSNYPPTFGAGTKLELK
B3: MAb 2BB7 (antibody, V domains shown)
VH: EVQLQQSGPDLVKPGASMKISCKASGYSFTAYTMNWVKQSHGKNLEWIGLISPYNGGTSYNQKFKGKATLTVDKSSSTAYMELLSLTSEDSAVYYCARQIGPYFDHWGQGTTLTVSS
VL: IVMTQTTPSSMYASLGERVTITCKASQDIKSSFSWFQQKPGKSPKTLIYRASRLVDGVPSRFSGSGSGQDSSLTISSLEYEDMGIYYCLQCDEFPYTFGGGTKLEIK
B4: MAb 2BB8 (antibody, V domains shown)
VH: QAYLQQSGAELVRSGASLKMSCKASGYTFTSYNLHWVKQTPGQGLEWIGYIFPGNGGTAYNEKFKGKATLTADTSSSTAYMQISSLTSEDSAVYFCARGGPYYALDYWGQGTSVTVSS
VL: DIQMTQSPASLSASVGETVTITCRTSGNIHTYLAWYQHKQGKSPQLLVYYAKTLADGVPSRFSGSGSGTQYSLKINSLQPEDFGSYYCQHFWSNPRTFGGGTKLEIK
B5: MAb 2AG9 (antibody, V domains shown)
VH: ELARPGASVKLSCKASGYTFTNYYMQWIKQRPGQGLEWIGAVYPGDGDTRYTQKFKGKASLTADKSSTTAYMQLSSLASEDSAVYYCTRGDYEGTWFTYWGQGTLVTVSA
VL: DIVMTQTTAIMSASPGEKVTMTCSASSSVSYMHWYQQKSGTSPKRWMYDTSKLASGVPGRFSGSGSGTTYSLTISTMEAEDAATYYCQQWSSNPPTFGGGTKLEIK
B6: MAb 2BA2 (antibody, V domains shown)
VH: VQLQESGPGLVKPSQPLSLTCSVTGYSITSAYYWNWIRQFPGNKLEWMGYITYDGTNNYNPSLKNRISITRDTSKNQFFLKLNSVTTEDTASYYCARDVATVGAMDYWGQGTSVTVSS
VL: SIVMTQTPKFLLVSAGDRVTITCKASQSVSNDVAWYQQKPGQSPKLLIYFASNRYTGVPDRFTGSGYGTDFTFTISTVLAEDLALYFCQQDYSSPRTFGGGTKLEVK
B7: MAb 2AF11 (antibody, V domains shown)
VH: QVTLKESGPGILQPSQTLSLTCSFSGFSLSTSGMSVGWIRQPSGKGLEWLAHIWWNDDMYYNPALESRLTISKDTSNNQVFLKIASVVTADTATYYCARIALTGPYWYFDVWGAGTTVTVSS
VL: DIVMTQTPASLSASVGETVTITCRASENIYSYLAWYQQKQGKSPQLLVNNAKTLAEGVPSRFSGSGSGTQFSLKINSLQPEDCGNYYCQHHYGTPLTFGAGTKLELK
B8: MAb 2BB6 (antibody, V domains shown)
VH: EVQLEESGPDLVKPSQSLSLTCTVTGFSITSGYSWHWIRQFPGNKLEWMGYIHFSGSTNYNPSLKSRISITRDTSKNQFFLQLSSVTTDDTGTYYCARDLTGIDSWGQGTTLTVSS
VL: DIVMTQTPAIMSASPGEKVTISCSASSSVSYMYWFQQKPGSSPKPWIYRTSNLASGVPARFSGSGSGTSYSVTISSMEAEDAATYYCQQYHSYPLTFGAGTKLELK

Legend:
[1] = target: Heartland virus (HRTV) nucleocapsid (N) protein (Heartland virus (HRTV)); test: ELISA, purified HRTV coated on the plate, MAb titrated
[2] = target: Heartland virus (HRTV) nucleocapsid (N) protein (Heartland virus (HRTV))
[3] = target: SFTSV antigen (SFTSV-infected Vero cells); test: IFA on acetone-fixed SFTSV-infected Vero cells, MAb in doubling dilutions

| Binder | ELISA endpoint titer [1] [ng/mL] | ELISA endpoint [2] [ng/mL] | IFA endpoint titer [3] [µg/mL] |
| --- | --- | --- | --- |
| B1 | 0.381 | 0.381 | – |
| B2 | 0.156 | 0.156 | – |
| B3 | 24.4 | 24.4 | – |
| B4 | 0.61 | 0.61 | – |
| B5 | 1.53 | 1.53 | – |
| B6 | 39.1 | 39.1 | – |
| B7 | – | 10000 | 1 |
| B8 | – | 10000 | – |
